Experimental data reported in article PMC4828686.
Where “and” joins values, the source holds several entries; their conditions need not be identical. Equal values may be shown once.

Assays:
[1] = molecular target: Actin, purified (rabbit skeletal muscle; Cytoskeleton, Inc.) (rabbit) (UniProt P68135); assay: ELISA
[2] = molecular target: Actin, purified (rabbit skeletal muscle; Cytoskeleton, Inc.) (rabbit) (UniProt P68135); assay: SPR
[3] = molecular target: Actin, purified (rabbit skeletal muscle; Cytoskeleton, Inc.) (rabbit) (UniProt P68135); assay: co-sedimentation
[4] = molecular target: GST-fused full-length kindlin-2 LK47/AA mutant (GST-K2LK47/AA) (human) (UniProt Q96AC1); assay: pull-down
[5] = molecular target: Actin mutant that cannot polymerize (G-actin mimetic; Joel et al., 2004); assay: SPR

Row | Substance | Kd [2] | percent of the added protein in the actin pellet [3] | also measured
1 | α-actinin (natural protein) | – | 52% | –
2 | Actin, purified (rabbit skeletal muscle; Cytoskeleton, Inc.) (from UniProt P68135 1-377) (natural protein) | – | – | mean percent less actin pulled down than by WT K2 [4]: 75%
3 | GST-fused full-length kindlin-2 (GST-K2) (from UniProt Q96AC1 1-680) (natural protein) | 136 nM and 190 nM | – | Kd [5]: 124 nM

Second part, led by results:

Row | Kd [2] | percent of the added protein in the actin pellet [3] | Substance | also measured
4 | 982 nM and 1580 nM | – | GST-fused full-length kindlin-2 LK47/AA mutant (GST-K2LK47/AA) (from UniProt Q96AC1 1-680) (natural protein) | fold difference of the relative Kd against WT K2 [1]: 3 fold and 5 fold
5 | – | 36% and 30% to 54% (2×) | Full-length kindlin-2 (K2), GST tag removed by Factor Xa (from UniProt Q96AC1 1-680) (natural protein) | –
